Reference: article PMC9241672

Tested on: His-ArgR2 (Lactiplantibacillus plantarum AR195)
Experiment: BLI
Details: ArgR2 256-4097 nM; BLI: 10 mM HEPES pH 8.0, 2 mM MgCl2, 0.1 mM EDTA, 200 mM KCl, 1 per mille (w/v) BSA and 2 per mille (v/v) Tween 20 in protein buffer; temperature not stated. …

## cla promoter probe
  Kd: < 1 pM
